The RNAGym collection of RNA variant scans (doi:10.1073/pnas.2313332121)

B1: TPR t1 (parent)
chain: GACCAAUCUGCCCUCAGAGCUCGAGAACAUCUUCGGAUGCAGAGGAGGCAGGCUUCGGUGGCGCGAUAGCGCCAACGUCCUCAACCUCCAAUGCAUCCCACCACAUGAUGAUGCCUGAAGAGCCUUGGUUUUUUG

Variants of: B1
Assay: polymerase ribozyme fitness, log enrichment relative to wild type (log ratio); higher = more active; in vitro selection for triplet polymerase activity
Procedure, shortened: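 Fitness measures genotype enrichment against wild-type enrichment on a logarithmic scale, with inverse-variance-weighted averaging of replicates. The logarithm is base 2, and genotypes were kept only with ≥10 input reads and ≥1 read per output in Illumina sequencing. The sequenced libraries came from one triplicate in vitro selection round, including frozen incubation at −7 °C, of PCR-built, transcribed mutant libraries of each subunit of a heterodimeric triplet polymerase ribozyme.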

Point of comparison: GACCAAUCUGCCCUCAUAGCUCGAGAACAUCUUCGGAUGCAGAUGAGGCAGGCUUCGGUGGCGCGAUAGCGGCAACGUCCUCAAUCUCCAAUGCAACCCACCACAUGAUGAUGCCUGAAGGGCGUUGGUUUUUUG [G17U G44U C72G C85U U96A A121G C124G], “polymerase ribozyme fitness (log ratio)” value -3.95. Against it:
- GACCAAUCUGCCCUCAUAGCUCGAGAACAUCUUCGGAUGCAGAGGAGGCAGGCUUCGGUGGCGCGAUGGCGCGAACGUCCUCAACCUCCAAUGCAUCCCACCACAUGAUGACGCCUGAAGAGCCUUGGUUUUUUG [G17U A68G C73G U112C] — lower, -5.21
- GACCAAUCUGCCCUCAUAGCUCGAGAACAUCUUCGGAUGCAGAGGAGGCAGGCUUCGGUGGCGCGAUAGCGCCAACGUCCUCAUCCUCCAAUGCAGCCCACCACAUGAUGAUGCCUGAAGAGCCUUGUUCUUUUG [G17U A84U U96G G128U U130C] — higher, -3.54
- GACCAAUCUGCCCUCAUAGCUCGAGAACAUCUUCGGAUGCAGAGGAGGCAGGCUUCGGUGGCGCGAUAGCGCCAACGUCCUCAACCUCCAAUGCGUCCCACCACAUGAUGAUGCCUGAAGAGCCUUGGUUAUUUG [G17U A95G U131A] — higher, -2.77
- GACCAAUCUGCCCUCAUAGCUCGAGAACAUCUUCGGAUGCAGAGGAGGCAGGCUUCGGUGGCGCGAUAGCGCCAACGUCCUCAACCUCCAAUGCAUCCCACCACAUGAUGAUGCCUGAAGGGCCUUGGUUUUUUG [G17U A121G] — higher, 0.688
- GACCAAUCUGCCCUCAUAGAUCGAGAACAUCUUCGGAUGCAGAGGAGGUAGGCUUCGGUGGCGCGAUAGCGCCAACGUCCUCAACCUCCAAUGCAUCCCACCACAUGAUGAUGCCUGAAGAGCCUUGGUUUUUUG [G17U C20A C49U] — lower, -5.73
- GACCAAUCUGCCCUCAUAGGUCGAGAACAUCUUCGGAUGCAGAGGAGGCAGACUUCGGUGGCGCGAUAGCGCAAACGUCCUCAACCUCCAAUGCAUCCCACCACAUGAUGAUACCUGAGGAGCCUUGGUUUUUUG [G17U C20G G52A C73A G113A A119G] — higher, -1.98
- GACCAAUCUGCCCUCAUAGCUCGAGAACAUUUUCGGAUGCAGAGGAGGCAGGCUUCGGUGGCGGGAUAGCGCCAACGUCCUCAACCUCCAAUUCAUCCCACCACAUGAUGAUGCCUGAAGAGACUUGGUAUUUUG [G17U C31U C64G G93U C123A U130A] — lower, -5.64
- GACCAAUCUGCCCUCAUAGCUCGAGAACAUCUUAGGAUGCAGAGGAGGCAGGCUUCGGUGGCGCGAUAGCGCCAACGUCCUCAACCUCCAAUGCAUCCCACCACAUGAUGAAGCCUGAACAGCCUUGGUUUUUUG [G17U C34A U112A G120C] — lower, -6.92
- GACCAAUCUGCCCUCAUAGCUCGAGAACAUCUUGGGAUGCAGAGGAGGCGGGCUUCGGUGGCGCGAUAGCGCCAACGUCCUCAACCUCCAAUGCAUCCCACCACAUGAUGAUGCCUGAAGAGCCUUGGUUUUUUG [G17U C34G A50G] — lower, -7.24
- GACCAAUCUGCCCUCAUAGCUCGAGAACAUCUUGGGAUGCAGAGGAGGCAGGCUUCGGUGGCGCGAUUGCGGCAACGUCCUCAAACUCCAAUGCAUCCCACCACAUGAUGAUGCCUGAAGAGACUUGGUUUUUUG [G17U C34G A68U C72G C85A C123A] — lower, -7.76
- GACCAAUCUGCCCUCAUAGCUCGAGAACAUCUUCGGAUGCAGAGGAGGAAGGCUUCGGUGACGCGAUAGCGCCAACGUCCUCAACCUCCAAUGCAUCCCACCACAUGAUGAUGCCUGAAGAGCCUUGGUUUUUUG [G17U C49A G61A] — higher, -2.67
- GACCAAUCUGCCCUCAUAGCUCGAGAACAUCUUCGGAUGCAGAGGAGGGAGGCUUCGGUGGCGUGAUAGCGCCAACGUCCUCAACCUCCAAUGCAUCCCACCACAUGAUGAUGCCUGAAGAGCCUUGGUUCUUUG [G17U C49G C64U U131C] — higher, -2.89
- GACCAAUCUGCCCUCAUAGCUCGAGAACAUCUUCGGAUGCAGAGGAGGCAGGGUUCGGUGGCGCGAUAGCGCCAACGUCCUCAACCUCCAAUGCACCCCACCACAUGAUGAUGCCUGAAGAGCCUCGGUUUUUUG [G17U C53G U96C U126C] — within 0.2 log units, -4.06
- GACCAAUCUGCCCUCAUAGCUCGAGAACAUCUUCGGAUGCAGAGGAGGCAGGCUUCGGUGGCGUGAUAGCGCCAACGCCCUCAACCUCCAAUGCAUCCCACCACAUGAUGAUGCCUGAAGAGCCUUGGUUUUUUG [G17U C64U U78C] — higher, -3.17
- GACCAAUCUGCCCUCAUAGCUCGAGAACAUCUUCGGAUGCAGAGGAGGCAGGCUUCGGUGGCGCGAUAGCGACAACGUCCUCAACCUCCAAUGCAUCCCACCACAUGAUGAUGCCUGAAGAGCCUUGGUUUUUUG [G17U C72A] — higher, -1.86
- GACCAAUCUGCCCUCAUAGCUCGAGAACAUCUUCGGAUGCAGAGGAGGCAGGCUUCGGUGGCGCGAUAGCGCCAACGUCCUCAACCUUCAAUGCAUCCCACCACAUGAUGAUGCCUGAAGAGCCUUGGUUUUUUG [G17U C88U] — higher, -2.42
- GACCAAUCUGCCCUCAUAGCUCGAGAACAUCUUCGGAUGCAGAGGAGGCAGGCUUCGGUGGCGCGAUAGCGCCAACGUCCUCAACCUUCAAUGCAUCCCACCACAUGAUGAUGCCUGAAGAGCCUUCGUUUUUUG [G17U C88U G127C] — within 0.2 log units, -3.89
- GACCAAUCUGCCCUCAUAGCUCGAGAACAUCUUCGGAUGCAGAGGAGGCAGGCUUCGGUGGCGCGAUAGCGCCAACGUCCUCAACCUCGAAUGCAUCCCACCAUAUGAUGAUGCCUGAAGAGCCUUGGUUUUUUG [G17U C89G C104U] — higher, -2.94
- GACCAAUCUGCCCUCAUAGCUCGAGAACAUCUUCGGAUGCAGAGGAGGCAGGCUUCGGUGGCGCGAUAGCGCCAACGUCCUCAACCUCCAAUGCAUCCCACCACAUGAUGAUGCGUGAAGAGCCUUGGUUUUUUG [G17U C115G] — higher, -0.423
- GACCAAUCUGCCCUCAUAGCUCGAGAACAUCUUCGGAUGCAUAGGAGGCAGGCUUCGGUGGCGCGAUAGCGCCAACGUCCUCAACCUCCAAUGCAUCCCACCACAUGAUGAUGCCUGAAGAGCCUUGAUUUUUUG [G17U G42U G128A] — lower, -5.51
